The target of the experiment is cholesterol ester hydrolase (CEH).

Square brackets hold non-standard residues; d marks the D form. Ends that are not written are not given here.

Consider [dR][dF][dH][dN][dP][dD][dK]G[dS][dR]G[dW][dE][dN][dA][dA][dQ][dD][dA] (also: retro-inverso peptide) [retro-inversal D amino acid peptide … (D-form; SEQ ID NO:3)], for which the in vivo macrophage cholesterol export ([3H]-cholesterol in plasma 5 hours after peptide injection) worked out at 2.5 fold.

For the origin of these results see US20100272817A1.
